For assay [1], the target named is human CD5 on cells (MOLT-4 human T lymphoblast cells; primary human T-cells) (human) (UniProt P06127). Briefly: flow cytometry on MOLT-4 cells, anti-mouse AF488 secondary, 4 C.
In assay [2] the target is purified human CD5 ectodomain (human) (UniProt P06127). Briefly: BLI (Octet Red96), antibody on anti-human Fc biosensors, 50 nM CD5 ectodomain, 25 C.
The target in assay [3] is human CD5 on cells (MOLT-4 human T lymphoblast cells; primary human T-cells) (human) (UniProt P06127). The assay is described as follows: flow cytometry on primary human T-cells, AF488 secondary, antibody titration at 37 C. (In general: Flow cytometry measures light scatter and fluorescence of single cells or particles in a stream.)

For the molecule “murine anti-CD5 antibody UCHT2 (BioLegend)”, the 50% effective concentration (EC50) in assay [1] worked out at 0.354 nM.

The molecule “murine anti-CD5 antibody CRIS-1 (Novus Biologicals)” yielded a half-maximal effective concentration (EC50) in assay [1] of 0.043 nM.

B1: anti-CD5 antibody 5D7 hIgG1 (humanized version of murine antibody 5D7) (antibody, V domains shown)
VH: QVTLKESGPVLVKPTETLTLTCTFSGFSLSTSGMGVGWIRQAPGKGLEWVAHIWWDDDVYYNPSLKSRLTITKDASKDQVSLKLSSVTAADTAVYYCVRRRATGTGFDYWGQGTLVTVSS
VL: NIVMTQSPSSLSASVGDRVTITCQASQDVGTAVAWYQQKPDQSPKLLIYWTSTRHTGVPDRFTGSGSGTDFTLTISSLQPEDIATYFCHQYNSYNTFGSGTKLEIK
In assay [2], B1 had a Kd of 0.141 nM, a Response of 0.67 nm, a dissociation rate constant (koff) of 3.36e-05 s⁻¹ and an on-rate constant (kon) of 239000 M⁻¹ s⁻¹. The molecule further came in with a concentration giving a half-maximal response (EC50) in assay [3] of 3 pM.

The term EC50 denotes the concentration at which the effect is half-maximal. Lower therefore signals greater potency. Broadly, the Kd is the free concentration of one partner at which half of the binding sites on the other are occupied at equilibrium, for simple one-to-one binding. A higher Kd goes with a looser complex. Broadly, the koff is the first-order rate constant of dissociation. Low values mean slow dissociation, high ones fast dissociation. One may read the kon as the rate constant with which the complex forms. The low end stands for slow association, the high end for fast association.

Values taken from patent publication US20200276326A1.
